Paper doi:10.1101/2022.09.07.506877

Target: Sb-gRAMP (type III-E CRISPR effector, Cas7-11);TPR-CHAT (caspase-like peptidase) (Candidatus "Scalindua …, UniProt A0A0B0EGF3;A0A0B0EKL4 1-1717;1-716, |)
Experiment: cryo-EM structure

B1: crRNA (37 nt) / target ssRNA (18 nt as modelled) (structured_RNA)
RNA 1: GGACUUAAUGUCACGGUACCCAAUUUUCUGCCCCGGA
RNA 2: UCCGGGGCAGAAAAUUGG
  binding result: binds
